Measured values from paper PMC3518592 (Structure (London, England : 1993), 2012).

Assays:
ubiquitin (D77) [1] = molecular target: T1, ubiquitin (D77) (UniProt P0CG48 1-76, D77); experiment: NMR titration
ubiquitin (D77) [2] = molecular target: T1, ubiquitin (D77); experiment: ITC
ubiquitin (D77) [3] = molecular target: T1, ubiquitin (D77); experiment: ITC; remark: listed apart in the source

B1: gp78CUE domain (453–504) (domain or fragment, human, UniProt Q9UKV5 453-504, looked up)
chain: SNSQLNAMAHQIQEMFPQVPYHLVLQDLQLTRSVEITTDNILEGRIQVPFPT
Kd (ubiquitin (D77) [1]): 13.6 ± 12 µM | dH (ubiquitin (D77) [2]): -3.418 ± 0.0239 kcal/mol | stoichiometry N (ubiquitin (D77) [2]): 0.91 | Kd (ubiquitin (D77) [3]): 12.8 ± 0.7 µM
